One test addresses T1, bovine LPL (bovine, UniProt P11151 29-478).
T1 sequence (looked up): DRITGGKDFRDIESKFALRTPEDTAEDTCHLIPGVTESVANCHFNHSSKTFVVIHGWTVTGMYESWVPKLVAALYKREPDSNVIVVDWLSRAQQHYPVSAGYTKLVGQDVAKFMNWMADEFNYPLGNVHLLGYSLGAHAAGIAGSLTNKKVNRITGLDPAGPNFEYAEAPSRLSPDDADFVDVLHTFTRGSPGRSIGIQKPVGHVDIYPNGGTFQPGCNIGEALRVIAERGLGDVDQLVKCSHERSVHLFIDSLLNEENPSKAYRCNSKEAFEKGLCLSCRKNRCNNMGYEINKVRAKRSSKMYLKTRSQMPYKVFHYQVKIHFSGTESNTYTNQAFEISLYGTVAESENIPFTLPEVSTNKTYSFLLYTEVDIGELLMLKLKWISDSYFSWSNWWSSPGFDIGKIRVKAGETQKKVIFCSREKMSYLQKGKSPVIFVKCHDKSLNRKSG
As to the kind of experiment: cell-based or functional assay.

For test [1], the target named is T2, amino acid residues 26-148 of human ANGPTL4 fused in-line to mouse IgG2a (hANGPTL4-mFc) (human).
T2 construct: contains the N-terminal coiled-coil region
T2 chain: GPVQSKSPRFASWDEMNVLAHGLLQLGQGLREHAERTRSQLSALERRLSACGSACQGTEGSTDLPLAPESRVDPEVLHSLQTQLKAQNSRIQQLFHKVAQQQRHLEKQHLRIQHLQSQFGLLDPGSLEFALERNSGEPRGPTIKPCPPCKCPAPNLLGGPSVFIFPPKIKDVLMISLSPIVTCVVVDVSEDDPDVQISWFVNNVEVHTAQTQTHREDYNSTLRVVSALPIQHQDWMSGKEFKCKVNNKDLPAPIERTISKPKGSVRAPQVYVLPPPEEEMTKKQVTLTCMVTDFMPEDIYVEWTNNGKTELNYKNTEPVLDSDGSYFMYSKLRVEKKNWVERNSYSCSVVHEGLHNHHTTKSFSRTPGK
As to the kind of experiment: SPR (Biacore), 25° C., pH 5.75, antigen captured by anti-mFc. As for the experimental part:
(§1) Kinetic analysis was performed to measure kₐ and kd, and KD values and half-life of antigen/antibody complex dissociation were calculated. The results are shown in Table 4 (H1H268P) and Table 5 (H1H284P).
For orientation: Surface plasmon resonance follows binding to a sensor surface in real time, without labels.

Test [2] addresses T3, cynomolgus monkey ANGPTL4 N-terminal region (amino acid residues 1-130 of SEQ ID NO:490) with a C-terminal … (cynomolgus monkey (Macaca fascicularis), UniProt Q9BY76 26-130 (human entry)).
T3 construct: also called MfANGPTL4(1-130)-His
T3 chain: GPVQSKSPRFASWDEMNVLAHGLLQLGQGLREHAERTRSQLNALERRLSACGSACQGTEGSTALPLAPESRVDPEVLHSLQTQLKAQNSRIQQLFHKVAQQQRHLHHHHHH
As to the kind of experiment: SPR (Biacore), 25° C., pH 5.75, antigen amino-coupled 1,028 RU. As for the experimental part: as §1

Test [3] deals with T3, cynomolgus monkey ANGPTL4 N-terminal …. As to the kind of experiment: SPR (Biacore), 25° C., pH 5.75, antigen amino-coupled 1,028 RU; Fab, not full mAb; pH 5.75. The method, then: as §1
Test [4] deals with T4, full-length hANGPTL4 (amino acid residues 26-406 of SEQ ID NO:476) with a C-terminal hexa-histidine tag (human, UniProt Q9BY76 26-406).
T4 construct: also called hANGPTL4-His; hANGPTL4(26-406)-His
T4 sequence: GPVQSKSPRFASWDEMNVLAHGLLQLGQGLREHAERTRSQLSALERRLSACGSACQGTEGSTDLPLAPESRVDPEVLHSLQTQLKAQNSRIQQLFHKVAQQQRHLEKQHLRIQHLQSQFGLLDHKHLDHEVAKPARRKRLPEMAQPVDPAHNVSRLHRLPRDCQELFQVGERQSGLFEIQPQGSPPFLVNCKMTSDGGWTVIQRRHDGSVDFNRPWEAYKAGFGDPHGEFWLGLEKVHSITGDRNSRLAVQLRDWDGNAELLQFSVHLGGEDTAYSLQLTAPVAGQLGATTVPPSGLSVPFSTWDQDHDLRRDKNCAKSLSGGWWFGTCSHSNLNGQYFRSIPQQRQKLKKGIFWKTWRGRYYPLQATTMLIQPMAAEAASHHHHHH
As to the kind of experiment: SPR (Biacore), 25° C., pH 7.2, antigen amino-coupled 450 RU. As for the experimental part:
as §1

Test [5] addresses T3, cynomolgus monkey ANGPTL4 N-terminal …. As to the kind of experiment: SPR (Biacore), 25° C., pH 7.2, antigen amino-coupled 1,028 RU. The method, then:
as §1

The target of test [6] is T4, full-length hANGPTL4 (amino acid …). As to the kind of experiment: SPR (Biacore), 25° C., pH 5.75, antigen amino-coupled 450 RU. The method, then: as §1
Test [7] deals with T2, amino acid residues 26-148 of human …. Nature of the test: SPR (Biacore), 25° C., pH 7.2, antigen captured by anti-mFc. The method, then:
as §1

The molecule “cynomolgus monkey ANGPTL4 N-terminal region (amino acid residues 26-148) with an N-terminal hexa-histidine tag (from UniProt Q9BY76 26-148) (ligand)” registered an EC50 (nM) of the ANGPTL4 protein in the LPL assay with bovine LPL of 3.89 nM.

B1: H1H268P Fab fragment (Fab, V domains shown)
VH: QVQLQESGAGLLKPSETLSLTCTVYGGSFSIHHWTWIRHPPGKGLEWIGEINHRGSTNYNPSLKSRVTISIDTSKNQFSLKLSAVTAADTAVYYCARGLRFLDWLSSYFDYWGQGTLVTVSS
VL: DIQMTQSPSSLSASVGDRVTITCRASQGISDYLAWYQQKPGKVPNLLIYAASALQSGVPSRFSGSGSGTDFTLTISSLQPEDVATYYCQNYNTAPLTFGGGTKVEIK
notes: Fab made by papain digestion of H1H268P (IgG1); also called H1H268 Fab
As usually defined, the Kd is the free concentration of one partner at which half of the binding sites on the other are occupied at equilibrium, for simple one-to-one binding. What is called koff is the first-order rate constant of dissociation. A word on the kon: it is the second-order rate constant of association. Take B1: the Kd was 17.5 nM in test [1]; 13.8 nM in test [3]; 16.3 nM in test [4]; 6.42 nM in test [5]; 14.8 nM in test [6]; 2 nM in test [7]. Moreover, the koff in test [1] was found to be 0.00304 s⁻¹; in test [2] it was 0.00432 s⁻¹; in test [4], 0.0118 s⁻¹; in test [5], 0.00171 s⁻¹; in test [6], 0.00657 s⁻¹; in test [7], 0.000601 s⁻¹. Moreover, the on-rate constant (kon) in test [1] amounted to 174000 M⁻¹ s⁻¹; in test [2] it was 312000 M⁻¹ s⁻¹; in test [4] it was 726000 M⁻¹ s⁻¹; in test [5], 267000 M⁻¹ s⁻¹; in test [6] it was 444000 M⁻¹ s⁻¹; in test [7], 300000 M⁻¹ s⁻¹. Also, the t1/2 was determined as 4 min in test [1]; 3 min in test [2]; 1 min in test [4]; 7 min in test [5]; 2 min in test [6]; 19 min in test [7].

B2: H1H284P Fab fragment (Fab, V domains shown)
VH: QVQLVESGGGVVQPGRSLRLSCAASGFTFSSYGMHWVRQAPGKGLEWMAVISFDGGNKNNADSVKGRFTISRDNSKNTLYLQMNSLRAEDTAVYYCAKEGDRSGHPYFYYYGLDVWGQGTTVTVS
VL: DIQLTQSPSFLSASVGDRVTITCWASQGISSYLAWYQQKPGKAPKLLIYAASTLQSGVPSRFSGSGSETEFTLTISSLQPEDFATYYCQQLHSYPLTFGGGTKVEIK
notes: Fab made by papain digestion of H1H284P (IgG1); also called H1H284 Fab
Take B2: the dissociation constant (Kd) in test [1] was 3.4 nM; in test [3], 8.54 nM; in test [4], 0.31 nM; in test [5] it was 10.1 nM; in test [6], 1.44 nM; in test [7] it was 0.823 nM. Moreover, the koff amounted to 0.0016 s⁻¹ in test [1]; 0.00619 s⁻¹ in test [2]; 0.000344 s⁻¹ in test [4]; 0.00313 s⁻¹ in test [5]; 0.00173 s⁻¹ in test [6]; 0.000202 s⁻¹ in test [7]. Besides, the kon in test [1] came to 472000 M⁻¹ s⁻¹; in test [2], 724000 M⁻¹ s⁻¹; in test [4], 1.11e+06 M⁻¹ s⁻¹; in test [5] it was 310000 M⁻¹ s⁻¹; in test [6], 1.21e+06 M⁻¹ s⁻¹; in test [7], 245000 M⁻¹ s⁻¹. Moreover, the t1/2 in test [1] is 7 min; in test [2], 2 min; in test [4], 34 min; in test [5] it was 4 min; in test [6], 7 min; in test [7], 57 min.

The values above are taken from patent US20130266574A1 (Regeneron, published 2013).
